In the RNAGym collection of RNA variant scans (doi:10.1021/acssynbio.7b00057):

B1: Pistol ribozyme (parent)
chain: GGGUCGUUGUUCCAUAAUCGCGUGGAUAUGGCACGCAAGUUUCUACCGGGCACCGUAAAUGUCCGACUGGAGCCGUUCGGGCGGCUAUAAACAGACCUCAGGCCCGAAGCGUGGCGGCACCUGCCGCCGGUGGUAAAAAAGAUCGGAAGAGCACACGUCU

Variants of: B1
Assay: aptazyme ON/OFF ratio, guanine; higher = stronger switching; co-transcriptional cleavage with and without guanine

In order of falling “aptazyme ON/OFF ratio” value:
1. GGGUCGAAAUGUCAUAAUCGCGUGGAUAUGGCACGCAAGUUUCUACCGGGCACCGUAAAUGUCCGACUGGAGCCGUUCGGGCGGCUAUAAACAGACCUCAGGCCCGAAGCGUGGCGGCACCUGCCGCCGGUGGUAAAAAAGAUCGGAAGAGCACACGUCU [U7A U8A G9A U11G C12U]  1.69
2. GGGUCGAACUUUUAUAAUCGCGUGGAUAUGGCACGCAAGUUUCUACCGGGCACCGUAAAUGUCCGACUGGAGCCGUUCGGGCGGCUAUAAACAGACCUCAGGCCCGAAGCGUGGCGGCACCUGCCGCCGGUGGUAAAAAAGAUCGGAAGAGCACACGUCU [U7A U8A G9C C12U C13U]  1.42
3. GGGUCGAAAUGGGAUAAUCGCGUGGAUAUGGCACGCAAGUUUCUACCGGGCACCGUAAAUGUCCGACUGGAGCCGUUCGGGCGGCUAUAAACAGACCUCAGGCCCGAAGCGUGGCGGCACCUGCCGCCGGUGGUAAAAAAGAUCGGAAGAGCACACGUCU [U7A U8A G9A U11G C12G C13G]  1.33
4. GGGUCGAAAUGGUAUAAUCGCGUGGAUAUGGCACGCAAGUUUCUACCGGGCACCGUAAAUGUCCGACUGGAGCCGUUCGGGCGGCUAUAAACAGACCUCAGGCCCGAAGCGUGGCGGCACCUGCCGCCGGUGGUAAAAAAGAUCGGAAGAGCACACGUCU [U7A U8A G9A U11G C12G C13U]  1.32
5. GGGUCGAAAUGGCAUAAUCGCGUGGAUAUGGCACGCAAGUUUCUACCGGGCACCGUAAAUGUCCGACUGGAGCCGUUCGGGCGGCUAUAAACAGACCUCAGGCCCGAAGCGUGGCGGCACCUGCCGCCGGUGGUAAAAAAGAUCGGAAGAGCACACGUCU [U7A U8A G9A U11G C12G]  1.3
6. GGGUCGAAAUGCCAUAAUCGCGUGGAUAUGGCACGCAAGUUUCUACCGGGCACCGUAAAUGUCCGACUGGAGCCGUUCGGGCGGCUAUAAACAGACCUCAGGCCCGAAGCGUGGCGGCACCUGCCGCCGGUGGUAAAAAAGAUCGGAAGAGCACACGUCU [U7A U8A G9A U11G]  1.29
7. GGGUCGAAAUGCUAUAAUCGCGUGGAUAUGGCACGCAAGUUUCUACCGGGCACCGUAAAUGUCCGACUGGAGCCGUUCGGGCGGCUAUAAACAGACCUCAGGCCCGAAGCGUGGCGGCACCUGCCGCCGGUGGUAAAAAAGAUCGGAAGAGCACACGUCU [U7A U8A G9A U11G C13U]  1.29
8. GGGUCGAACAUCCAUAAUCGCGUGGAUAUGGCACGCAAGUUUCUACCGGGCACCGUAAAUGUCCGACUGGAGCCGUUCGGGCGGCUAUAAACAGACCUCAGGCCCGAAGCGUGGCGGCACCUGCCGCCGGUGGUAAAAAAGAUCGGAAGAGCACACGUCU [U7A U8A G9C U10A]  1.27
9. GGGUCGAACUUUCAUAAUCGCGUGGAUAUGGCACGCAAGUUUCUACCGGGCACCGUAAAUGUCCGACUGGAGCCGUUCGGGCGGCUAUAAACAGACCUCAGGCCCGAAGCGUGGCGGCACCUGCCGCCGGUGGUAAAAAAGAUCGGAAGAGCACACGUCU [U7A U8A G9C C12U]  1.26
10. GGGUCGAAAUGUUAUAAUCGCGUGGAUAUGGCACGCAAGUUUCUACCGGGCACCGUAAAUGUCCGACUGGAGCCGUUCGGGCGGCUAUAAACAGACCUCAGGCCCGAAGCGUGGCGGCACCUGCCGCCGGUGGUAAAAAAGAUCGGAAGAGCACACGUCU [U7A U8A G9A U11G C12U C13U]  1.26
11. GGGUCGAACUUAUAUAAUCGCGUGGAUAUGGCACGCAAGUUUCUACCGGGCACCGUAAAUGUCCGACUGGAGCCGUUCGGGCGGCUAUAAACAGACCUCAGGCCCGAAGCGUGGCGGCACCUGCCGCCGGUGGUAAAAAAGAUCGGAAGAGCACACGUCU [U7A U8A G9C C12A C13U]  1.24
12. GGGUCGAACUUUGAUAAUCGCGUGGAUAUGGCACGCAAGUUUCUACCGGGCACCGUAAAUGUCCGACUGGAGCCGUUCGGGCGGCUAUAAACAGACCUCAGGCCCGAAGCGUGGCGGCACCUGCCGCCGGUGGUAAAAAAGAUCGGAAGAGCACACGUCU [U7A U8A G9C C12U C13G]  1.23
13. GGGUCGAACUUACAUAAUCGCGUGGAUAUGGCACGCAAGUUUCUACCGGGCACCGUAAAUGUCCGACUGGAGCCGUUCGGGCGGCUAUAAACAGACCUCAGGCCCGAAGCGUGGCGGCACCUGCCGCCGGUGGUAAAAAAGAUCGGAAGAGCACACGUCU [U7A U8A G9C C12A]  1.22
14. GGGUCGAACUUCCAUAAUCGCGUGGAUAUGGCACGCAAGUUUCUACCGGGCACCGUAAAUGUCCGACUGGAGCCGUUCGGGCGGCUAUAAACAGACCUCAGGCCCGAAGCGUGGCGGCACCUGCCGCCGGUGGUAAAAAAGAUCGGAAGAGCACACGUCU [U7A U8A G9C]  1.22
15. GGGUCGAACAUACAUAAUCGCGUGGAUAUGGCACGCAAGUUUCUACCGGGCACCGUAAAUGUCCGACUGGAGCCGUUCGGGCGGCUAUAAACAGACCUCAGGCCCGAAGCGUGGCGGCACCUGCCGCCGGUGGUAAAAAAGAUCGGAAGAGCACACGUCU [U7A U8A G9C U10A C12A]  1.2
16. GGGUCGAACUUGAAUAAUCGCGUGGAUAUGGCACGCAAGUUUCUACCGGGCACCGUAAAUGUCCGACUGGAGCCGUUCGGGCGGCUAUAAACAGACCUCAGGCCCGAAGCGUGGCGGCACCUGCCGCCGGUGGUAAAAAAGAUCGGAAGAGCACACGUCU [U7A U8A G9C C12G C13A]  1.19
17. GGGUCGAACUUGUAUAAUCGCGUGGAUAUGGCACGCAAGUUUCUACCGGGCACCGUAAAUGUCCGACUGGAGCCGUUCGGGCGGCUAUAAACAGACCUCAGGCCCGAAGCGUGGCGGCACCUGCCGCCGGUGGUAAAAAAGAUCGGAAGAGCACACGUCU [U7A U8A G9C C12G C13U]  1.18
18. GGGUCGAAAUGUGAUAAUCGCGUGGAUAUGGCACGCAAGUUUCUACCGGGCACCGUAAAUGUCCGACUGGAGCCGUUCGGGCGGCUAUAAACAGACCUCAGGCCCGAAGCGUGGCGGCACCUGCCGCCGGUGGUAAAAAAGAUCGGAAGAGCACACGUCU [U7A U8A G9A U11G C12U C13G]  1.18
19. GGGUCGAACUUGGAUAAUCGCGUGGAUAUGGCACGCAAGUUUCUACCGGGCACCGUAAAUGUCCGACUGGAGCCGUUCGGGCGGCUAUAAACAGACCUCAGGCCCGAAGCGUGGCGGCACCUGCCGCCGGUGGUAAAAAAGAUCGGAAGAGCACACGUCU [U7A U8A G9C C12G C13G]  1.17
20. GGGUCGAACUUAAAUAAUCGCGUGGAUAUGGCACGCAAGUUUCUACCGGGCACCGUAAAUGUCCGACUGGAGCCGUUCGGGCGGCUAUAAACAGACCUCAGGCCCGAAGCGUGGCGGCACCUGCCGCCGGUGGUAAAAAAGAUCGGAAGAGCACACGUCU [U7A U8A G9C C12A C13A]  1.17
21. GGGUCGAAAUGGAAUAAUCGCGUGGAUAUGGCACGCAAGUUUCUACCGGGCACCGUAAAUGUCCGACUGGAGCCGUUCGGGCGGCUAUAAACAGACCUCAGGCCCGAAGCGUGGCGGCACCUGCCGCCGGUGGUAAAAAAGAUCGGAAGAGCACACGUCU [U7A U8A G9A U11G C12G C13A]  1.16
22. GGGUCGAAAUGUAAUAAUCGCGUGGAUAUGGCACGCAAGUUUCUACCGGGCACCGUAAAUGUCCGACUGGAGCCGUUCGGGCGGCUAUAAACAGACCUCAGGCCCGAAGCGUGGCGGCACCUGCCGCCGGUGGUAAAAAAGAUCGGAAGAGCACACGUCU [U7A U8A G9A U11G C12U C13A]  1.16
23. GGGUCGAAAUGCAAUAAUCGCGUGGAUAUGGCACGCAAGUUUCUACCGGGCACCGUAAAUGUCCGACUGGAGCCGUUCGGGCGGCUAUAAACAGACCUCAGGCCCGAAGCGUGGCGGCACCUGCCGCCGGUGGUAAAAAAGAUCGGAAGAGCACACGUCU [U7A U8A G9A U11G C13A]  1.15
24. GGGUCGAACUUCAAUAAUCGCGUGGAUAUGGCACGCAAGUUUCUACCGGGCACCGUAAAUGUCCGACUGGAGCCGUUCGGGCGGCUAUAAACAGACCUCAGGCCCGAAGCGUGGCGGCACCUGCCGCCGGUGGUAAAAAAGAUCGGAAGAGCACACGUCU [U7A U8A G9C C13A]  1.15
25. GGGUCGAACUUUAAUAAUCGCGUGGAUAUGGCACGCAAGUUUCUACCGGGCACCGUAAAUGUCCGACUGGAGCCGUUCGGGCGGCUAUAAACAGACCUCAGGCCCGAAGCGUGGCGGCACCUGCCGCCGGUGGUAAAAAAGAUCGGAAGAGCACACGUCU [U7A U8A G9C C12U C13A]  1.15
26. GGGUCGAAAUGCGAUAAUCGCGUGGAUAUGGCACGCAAGUUUCUACCGGGCACCGUAAAUGUCCGACUGGAGCCGUUCGGGCGGCUAUAAACAGACCUCAGGCCCGAAGCGUGGCGGCACCUGCCGCCGGUGGUAAAAAAGAUCGGAAGAGCACACGUCU [U7A U8A G9A U11G C13G]  1.14
27. GGGUCGAACUUCUAUAAUCGCGUGGAUAUGGCACGCAAGUUUCUACCGGGCACCGUAAAUGUCCGACUGGAGCCGUUCGGGCGGCUAUAAACAGACCUCAGGCCCGAAGCGUGGCGGCACCUGCCGCCGGUGGUAAAAAAGAUCGGAAGAGCACACGUCU [U7A U8A G9C C13U]  1.13
28. GGGUCGAACUUAGAUAAUCGCGUGGAUAUGGCACGCAAGUUUCUACCGGGCACCGUAAAUGUCCGACUGGAGCCGUUCGGGCGGCUAUAAACAGACCUCAGGCCCGAAGCGUGGCGGCACCUGCCGCCGGUGGUAAAAAAGAUCGGAAGAGCACACGUCU [U7A U8A G9C C12A C13G]  1.13
29. GGGUCGAAAUCCGAUAAUCGCGUGGAUAUGGCACGCAAGUUUCUACCGGGCACCGUAAAUGUCCGACUGGAGCCGUUCGGGCGGCUAUAAACAGACCUCAGGCCCGAAGCGUGGCGGCACCUGCCGCCGGUGGUAAAAAAGAUCGGAAGAGCACACGUCU [U7A U8A G9A U11C C13G]  1.12
30. GGGUCGAAAUGAGAUAAUCGCGUGGAUAUGGCACGCAAGUUUCUACCGGGCACCGUAAAUGUCCGACUGGAGCCGUUCGGGCGGCUAUAAACAGACCUCAGGCCCGAAGCGUGGCGGCACCUGCCGCCGGUGGUAAAAAAGAUCGGAAGAGCACACGUCU [U7A U8A G9A U11G C12A C13G]  1.11
31. GGGUCGAAAUGACAUAAUCGCGUGGAUAUGGCACGCAAGUUUCUACCGGGCACCGUAAAUGUCCGACUGGAGCCGUUCGGGCGGCUAUAAACAGACCUCAGGCCCGAAGCGUGGCGGCACCUGCCGCCGGUGGUAAAAAAGAUCGGAAGAGCACACGUCU [U7A U8A G9A U11G C12A]  1.11
32. GGGUCGAACUUGCAUAAUCGCGUGGAUAUGGCACGCAAGUUUCUACCGGGCACCGUAAAUGUCCGACUGGAGCCGUUCGGGCGGCUAUAAACAGACCUCAGGCCCGAAGCGUGGCGGCACCUGCCGCCGGUGGUAAAAAAGAUCGGAAGAGCACACGUCU [U7A U8A G9C C12G]  1.1
33. GGGUCGAAAUCCUAUAAUCGCGUGGAUAUGGCACGCAAGUUUCUACCGGGCACCGUAAAUGUCCGACUGGAGCCGUUCGGGCGGCUAUAAACAGACCUCAGGCCCGAAGCGUGGCGGCACCUGCCGCCGGUGGUAAAAAAGAUCGGAAGAGCACACGUCU [U7A U8A G9A U11C C13U]  1.1
34. GGGUCGAAAUGAUAUAAUCGCGUGGAUAUGGCACGCAAGUUUCUACCGGGCACCGUAAAUGUCCGACUGGAGCCGUUCGGGCGGCUAUAAACAGACCUCAGGCCCGAAGCGUGGCGGCACCUGCCGCCGGUGGUAAAAAAGAUCGGAAGAGCACACGUCU [U7A U8A G9A U11G C12A C13U]  1.09
35. GGGUCGAAAUGAAAUAAUCGCGUGGAUAUGGCACGCAAGUUUCUACCGGGCACCGUAAAUGUCCGACUGGAGCCGUUCGGGCGGCUAUAAACAGACCUCAGGCCCGAAGCGUGGCGGCACCUGCCGCCGGUGGUAAAAAAGAUCGGAAGAGCACACGUCU [U7A U8A G9A U11G C12A C13A]  1.08
36. GGGUCGAACUUCGAUAAUCGCGUGGAUAUGGCACGCAAGUUUCUACCGGGCACCGUAAAUGUCCGACUGGAGCCGUUCGGGCGGCUAUAAACAGACCUCAGGCCCGAAGCGUGGCGGCACCUGCCGCCGGUGGUAAAAAAGAUCGGAAGAGCACACGUCU [U7A U8A G9C C13G]  1.03
